Measurements as given in IntAct's records for PubMed 24075010.

B1: Myocyte-specific enhancer factor 2 (Drosophila melanogaster (Fruit fly)), P40791 (parent)
chain: MGRKKIQISRITDERNRQVTFNKRKFGVMKKAYELSVLCDCEIALIIFSSSNKLYQYASTDMDRVLLKYTEYNEPHESLTNKNIIEKENKNGVMSPDSPEAETDYTLTPRTEAKYNKIDEEFQNMMQRNQMAIGGAGAPRQLPNSSYTLPVSVPVPGSYGDNLLQASPQMSHTNISPRPSSSETDSGGMSLIIYPSGSMLEMSNGYPHSHSPLVGSPSPGPSPGIAHHLSIKQQSPGSQNGRASNLRVVIPPTIAPIPPNMSAPDDVGYADQRQSQTSLNTPVVTLQTPIPALTSYSFGAQDFSSSGVMNSADIMSLNTWHQGLVPHSSLSHLAVSNSTPPPATSPVSIKVKAEPQSPPRDLSASGHQQNSNGSTGSGGSSSSTSSNASGGAGGGGAVSAANVITHLNNVSVLAGGPSGQGGGGGGGGSNGNVEQATNLSVLSHAQQHHLGMPNSRPSSTGHITPTPGHDKYEGYPYRALMGHNPRWNLNFAGAPSSDQDVRLAAVAVQQQQQQPHQQQQLGDYDAPNHKRPRISGGWGT
partner: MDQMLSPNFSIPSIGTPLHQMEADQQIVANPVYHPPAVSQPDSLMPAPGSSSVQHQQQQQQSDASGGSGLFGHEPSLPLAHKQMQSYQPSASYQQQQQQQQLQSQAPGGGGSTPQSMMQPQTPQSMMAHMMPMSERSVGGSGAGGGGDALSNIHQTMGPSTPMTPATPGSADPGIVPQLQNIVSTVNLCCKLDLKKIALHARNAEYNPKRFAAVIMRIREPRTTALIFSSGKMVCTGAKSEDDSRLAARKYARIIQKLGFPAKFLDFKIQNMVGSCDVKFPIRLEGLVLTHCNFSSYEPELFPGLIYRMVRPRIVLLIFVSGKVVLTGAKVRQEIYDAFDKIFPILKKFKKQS

Variants of: B1
Conditions: with tbp_drome Tbp

Row | effect of a mutation on the interaction | Variant
1 | decreasing interaction strength | MGRKKIQISRITDERNRQVEFNKRKFGVMKKAYELSVLCDCEIALIIFSSSNKLYQYASTDMDRVLLKYTEYNEPHESLTNKNIIEKENKNGVMSPDSPEAETDYTLTPRTEAKYNKIDEEFQNMMQRNQMAIGGAGAPRQLPNSSYTLPVSVPVPGSYGDNLLQASPQMSHTNISPRPSSSETDSGGMSLIIYPSGSMLEMSNGYPHSHSPLVGSPSPGPSPGIAHHLSIKQQSPGSQNGRASNLRVVIPPTIAPIPPNMSAPDDVGYADQRQSQTSLNTPVVTLQTPIPALTSYSFGAQDFSSSGVMNSADIMSLNTWHQGLVPHSSLSHLAVSNSTPPPATSPVSIKVKAEPQSPPRDLSASGHQQNSNGSTGSGGSSSSTSSNASGGAGGGGAVSAANVITHLNNVSVLAGGPSGQGGGGGGGGSNGNVEQATNLSVLSHAQQHHLGMPNSRPSSTGHITPTPGHDKYEGYPYRALMGHNPRWNLNFAGAPSSDQDVRLAAVAVQQQQQQPHQQQQLGDYDAPNHKRPRISGGWGT [T20E]
2 | increasing interaction strength | MGRKKIQISRITDERNRQVAFNKRKFGVMKKAYELSVLCDCEIALIIFSSSNKLYQYASTDMDRVLLKYTEYNEPHESLTNKNIIEKENKNGVMSPDSPEAETDYTLTPRTEAKYNKIDEEFQNMMQRNQMAIGGAGAPRQLPNSSYTLPVSVPVPGSYGDNLLQASPQMSHTNISPRPSSSETDSGGMSLIIYPSGSMLEMSNGYPHSHSPLVGSPSPGPSPGIAHHLSIKQQSPGSQNGRASNLRVVIPPTIAPIPPNMSAPDDVGYADQRQSQTSLNTPVVTLQTPIPALTSYSFGAQDFSSSGVMNSADIMSLNTWHQGLVPHSSLSHLAVSNSTPPPATSPVSIKVKAEPQSPPRDLSASGHQQNSNGSTGSGGSSSSTSSNASGGAGGGGAVSAANVITHLNNVSVLAGGPSGQGGGGGGGGSNGNVEQATNLSVLSHAQQHHLGMPNSRPSSTGHITPTPGHDKYEGYPYRALMGHNPRWNLNFAGAPSSDQDVRLAAVAVQQQQQQPHQQQQLGDYDAPNHKRPRISGGWGT [T20A]
